# Source: the DeepSol protein solubility set
# Assay: soluble on expression in E. coli; label from the status in PepcDB or PDB records
row,Sequence,soluble on expression in E. coli
1,MTTVSKPDESSFDVRTLSMKTCGSRLCVGFCYCSGVVKFRKSESVGTVDIPFPSLGACPSLTLSMSPNMNFSSRMALAPTSPMKRSKSVPNILSGEYPNSVCVVANSIDENGDAGVDVTDCASTKPLVLGKDNYQDNYWDSQETNHRNADMKTPKKKVGKISKFVNICVSELKKFKNPNSGVTSIDGVERLKKEIAPLPSSPLKLTSTSTIEFQSTVTSSSPIMRSRETTSTIQRSKIISSTTKVMSDMLMDKEGKDSEISENSINCSTNLAVNKMGDVPSLSQFEDADGLQKKLTEPVELPAKSQEVYQYDVSASPAKEDLKWSTLKKIDLIVPSFRSKKRGLVAHLKSSPISKISYDGSPSKQVGVLDGEITDDGRIDSGPAKAIIPTSTENIIMPKELNISDIGEKAEVSRGLRKRHLEDSSTPSSRGPSTPAKLITDEDATNKKKRVLGKNMVDNKASSPNKEHILPIDQLNNSSAMGISSENTAPMELKATGNDPVSDGGGYKFLVTAETGRKFDEFRAKRQRLRESWMENKSPTSNKNVQTTAVTSGFQSNEQAPENLPATMECLNKEAATTPMNDNRALLTEVGPEAALAEPKLGKPLLPVENVLQYSKSPSKTAVTNKPTKTVLKANFNAPIGKINSDISFFTPKKVFGKSEYQYGPSMGKLIQMMGTGTPKKVLPEFGSSSKTALFSPRKEEHCAGAPRGSWKIAKMRVRTKLSNFYPSSRSKNSQQIRGKWLGQNIVQFSGHHSMIAQSANDKHGANLMEISAQPSTSTTAQNI,not soluble
2,MTTYLIIGANRVGQLVARQLATESATVRLLHDGKETLPSDLATQVTELTGDLTQEATYTAALQDQPIIFSALTGMDVDLAFEALFDAQYHQRLTFQRFVMLSTAGVDQEVTGDLAYPGITDVAEYLKQQRYAAKLVDEAEFPYTILRPVTLADSPRRDPQIIKEGAAVPAGTVSRETVAQVAVSLLQAGGADYQSLAICLEHHHHHH,not soluble
3,MTVDSPILTDTLVVGGGQAGIAMSEHLTGQGVPHIVLERDRIAQRWRTGRWDSLVANGPAWHDRFPGLEFEGLDPDGFASKDAVADYLEAYARKFNAPIRTGVEVVRAERNGGRYGFTVETSAGTYEAQRIVVATGPFQRPVIPAIAPRDPALTQIHSADYRNPGQLPEGAVLVIGAGSSGVQIADELQRAGREVYLSVGPHDRPPRRYRGRDFCWWLGVLGLWDQETVQPGREHVTIAVSGTDGGRTIEFRALAHQGITLVGVTKSFRDGVVAFENDLAENVARGDANHFALLDAADAYIARNGLSLPDEPQARRVPPDPACMTEPILQLDLAAANVTSIIWATGYAAEYGWLNVDAFDANGKPRHQRGVSSEPGVYFLGLPWLSRRGSAFLWGVWHDAKHIAGHIAMQRNYLSYPDFGQSQQLEHHHHHH,soluble
4,MTVEWLAEQLKEHNIQLTETQKQQFQTYYRLLVEWNEKMNLTSITDEHDVYLKHFYDSIAPSFYFDFNQPISICDVGAGAGFPSIPLKIMFPQLKVTIVDSLNKRIQFLNHLASELQLQDVSFIHDRAETFGKGVYRESYDVVTARAVARLSVLSELCLPLVKKGGQFVALKSSKGEEELEEAKFAISVLGGNVTETHTFELPEDAGERQMFIIDKKRQTPKKYPRKPGTPNKTPLLEK,not soluble
5,MTVFTPRTDCEVAVIGAGPFGLAAASALKGAGVDALTLGGAMSFWRDHMPRGMRLRSPWHATYIGHTKGPLSLDSYAKVLGISPREPLLLENFVDYGLWIQAQAVPDLDTRKVDRVEKANGGFRLALADGNAIKARRVVVATGLMNQQLIPAVFDGIPRELVSHASEHTGYEAFRGKRVAVIGRGQSACESAVLLKRNGAEVDLVCHGDIHWLGYRALSGKQGWSLRDFLSERLASPSRVGPFPISWLVEVPGVVHRFPEPARAGLNRRSLGAGATGWLKPDFDGIEIRAGSRIISASARDNGIELRFEKDFASFDHVVLGTGYRIDIAKLGLFAPAMLAAIARREGLPLLSAGFESSIPGLHFVGASAVGSFGPLMRFTAGTPFAARTVARFIQRAKDRRYTAALEHHHHHH,not soluble
6,MTVLQLPNIPRITLLGTTALLFEAPGELDLAPQQRIWALADLSKNWPQVREAVPGMNNLMLTFETPPRDLSGLKTRLMEAWEHCQPLPLQGRIIELPVVYGGDGGPHMADVIAHTGLDIETIANLHCEPLYPVYALGSHPGYCYLGGMDLRLATPRRKVPVLDIGAGSVSIGGVQTGISASAGPSGWNTIGRTEMVFFDADQHPPALLQPGDQLRLRIERIIRLEHHHHHH,not soluble
7,MTVPLYKQIASLIEDSIVDGTLSIDQRVPSTNELAAFHRINPATARNGLTLLVEAGILYKKRGIGMFVSAQAPALIRERRDAAFAATYVAPLIDESIHLGFTRARIHALLDQVAESRGLYK,not soluble
8,MTVQEISRVIDGKRVIVKKPELLIPAGNLEKLKVAIHYGADAVYLGGQEFGLRSNAGNFTLEEMAEGVEFAKKYGAKIYVTTNIFAHNENMDGLEEYLKGIEKAGVTGIIVADPLIIETCKRVAPSVEVHLSTQQSLSNWKAAQYWKEEGLHRLVLAREASYEEMKEIKEKVDIEIEAFVHGAMCIAYSGRCTLSNHMTARDSNRGGCCQSCRWDYDLVQTVSQHKDAKELPLFQEEDAHFAMSPKDLNLILSIPKMIEIGIDSLKVEGRMKSIHYVATVATVYRKVIDAYCADPDNFEFKQEWLDELDKCANRDTAPAFFEGVPGHQEQMFGNHSKKTTYDFAGLVLDYNEETGIVTIEQRNHFKPGHEVEFFGPEIENFTQTVEKIWDEDGNELDAARHPLQIVKFKVDQPVYVNNMMRKSILQ,not soluble
9,MTVSPSYDAIVIGSGIGGLVTATQLVSKGLKVLVLERYLIPGGSAGYFEREGYRFDVGASMIFGFGDRGTTNLLTRALAAVGQALETLPDPVQIHYHLPGGLDPKVHREYEAFLQELIAKFPQEAQGIRRFYDECWQVFNCLNTMELLSLEEPRYLMRVFFQHPGACLGLVKYLPQNVGDIARRHIQDPDLLKFIDMECYCWSVVPADLTPMINAGMVFSDRHYGGINYPKGGVGQIAESLVAGLEKFGGKIRYGARVTKIIQENNQAIGVELANGEKIYGRRIVSNATRWDTFGALTGDQPLPGKEKRWRRNYQQSPSFLSLHLGVEADLLPEGTECHHILLEDWDDLEKEQGTIFVSIPTLLDPSLAPDGYHIIHTFTPSWLESWQNLSPQEYEAKKEADSGKLIDRLEAIFPGLDRALDYMEIGTPRSHRRFLGRQNGTYGPIPRRRLPGLLPMPFNRTAIPGLYCVGDSTFPGQGLNAVAFSGFACAHRLAVDLGVRLEHHHHHH,not soluble
10,MTVTFYSYPKCGTCQKAKKWFEANDVAYEMIHIVENPPSKEDLRNLHEKSELPLKKFFNTSGMRYRELGLKDKLKDASEDEMYELLASDGMLIKRPIVTDGTNVTLGFNEEQFESVWKKYQ,not soluble
11,MTWLLFGAGNGVGGCLLQRAIECEQAVVLVLRNPEQAKHWREQGVTVVEGDACDPETVAEACRVAGPSAIVVSTMGGGTVNYQGHRTVIDGAEQAGIKRMLLVTSLGCGDSWPLLSPRARAAFGFAVREKSLAESWLQSSTLDHCIVRPGGLLDVVATHNAKLTQGAATLGLVSRSDVALAVDQLLQQPVFGNHIYNLIDPDLTMPAIPLEHHHHHH,not soluble
12,MTWNESHGERIIRRFERDIFPWIGSKPISEIAAPELLATVRRIESRGAVETAHRALGNCGQVFRYAIATARATRDISADLRGALPPVKGEHLEHHHHHH,not soluble
13,MTYDPKTAVKQDSFSGKEPFNILLLGTDTGAFGRKEVRGNSDTMILVTVNPAKKKLSLMSIPRDTMARMIGTDNFSVHKINAAYNIGGAKMAMRTTSKVLNVPIKYYISMNMGGMRKIVDGVGGVTVTPPLTFTYDGYTFTKGKTVHLNGSQALAYSRMRYDDPKGDYGRQLRQREVIMSVLEHALSFNTLKNLDSILGSVSTSLRTNLTFDSMVKISKNYRKCTNNMSSDYLHGVGAMIGDASYQVMSDRELQRTSNIVRNDLGLDSMDIDNNETYQNSMNSQFDWNSGDSNQVYYIYDPYTDELWNGDRAYLEHHHHHH,soluble
14,MVADVKSPAGLAAFNTTLAEQAFATGFVLSGEDAQLFAALGSAPNASTYPNVARWYANVASYTDAERKTWASAGGSAPAAAAADGDDFDLFGSDDEEEDAEKAKIVEERLAAYAEKKAKKAGPIAKSSVILDVKPWDDETDLGEMEKLVRSIEMDGLVWGGAKLIPIGYGIKKLQIITVIEDLKVSVDDLIEKITGDFEDHVQSVDIVAFNKI,not soluble
15,MVAEVSPKLAASPMKKPFGFRGKMGKWCCCCFPCCRGSGKNNMGAWRDHDDSAFTEPRYHVRREDLGKLHRAAWWGEVPRADLIVMLRGPGINKRDKKKRTALHLACANGNSEVVSLLLDRQCQLHVFDSKKRTALIKAVQCQEDECALMLLQHGTDPNLPDMYGNTALHYAVYNEDKLMAKTLLLYGADIESKNKGGLTPLLLAVHGQKQRMVKFLIKKKANLNALDRFGRICQLLSDYKENQMPNNSSGNSNPEQDLKLTSEEEPQRLKGSENSQHEKVTQEPDINKDCDREVEEEMQKHGSNNVGLSENLTDGAAAGNGDGGLVPQRKSRKHENQQFPNTEIEEYHRPEKKSNEKNKVKSQIHSVDNLDDITWPSEIASEDYDLLFSNYETFTLLIEQLKMDFNDSASLSKIQDAVISEEHLLELKNSHYEQLTVEVEQMENMVHVLQK,not soluble
16,MVALQIPSLAATVRQDFPILNQEINGHPLVYLDNAATSQKPRAVLEKLMHYYENDNANVHRGAHQLSVRATDAYEAVRNKVAKFINARSPREIVYTRNATEAINLVAYSWGMNNLKAGDEIITTVMEHHSNLVPWQMVAAKTGAVLKFVQLDEQESFDLEHFKTLLSEKTKLVTVVHISNTLGCVNPAEEIAQLAHQAGAKVLVDACQSAPHYPLDVQLIDCDWLVASGHKMCAPTGIGFLYGKEEILEAMPPFFGGGEMIAEVFFDHFTTGELPHKFEAGTPAIAEAIALGAAVDYLTDLGMENIHNYEVELTHYLWQGLGQIPQLRLYGPNPKHGDRAALASFNVAGLHASDVATMVDQDGIAIRSGHHCTQPLHRLFDASGSARASLYFYNTKEEIDLFLQSLQATIRFFSDDDFTV,soluble
17,MVAPGKKFTLRHIFKNVTKWKTGEIFYSPDEEHFNVPWQMCIHRENGNMCVILCCLKVEEDRVPWKINFEYQLKIVNISGMSIVKAGNKICTEKRRFVRRQFISRNTLKSGYLVDDIITVEATVKITKVSKKQLRSFDKSNKKFSDVILAIEDEKFYVLKKFLASHSTYFKTLLLGKFEEAERQEVKLQDIDSTDFQNLMEVLYGESAIDDGTIKGILELADMYDMPFPIRKCEEFLIDSSEKSIKEKLKIAKQYKMENLKNSCLSKVNTVRDIKAAMTGDPTEMDLSVLAALLGKSLALH,not soluble
18,MVARRKGERVVRKNEVENVQQRACANRRERQRTKELNDAFTLLRKLIPSMPSDKMSKIHTLRIATDYISFLDEMQKNGCKLYGHSIFDEKRGYNLQSAFNMWRGNNGYTPIAGPSQLPPLQSAHIPPPAPSSIPPHCLMPQPWYQTCPPPKQEFHELCPISTPNPNSNPNQLTPIHWQ,not soluble
19,MVDEVAKKKSKKEKDKDSKLEKALKAQNDLIWNIKDELKKVCSTNDLKELLIFNKQQVPSGESAILDRVADGMVFGALLPCEECSGQLVFKSDAYYCTGDVTAWTKCMVKTQTPNRKEWVTPKEFREISYLKKLKVKKQDRIFPPETSASVALEHHHHHH,soluble
